Measured values from patent US20260132208A1 (DOMAIN THERAPEUTICS, published 2026).
“And” between values parts separate entries of the source, which are not always exact repeats. Equal values may be shown once.

How the values were obtained:
[1] = target: T1, human CCR8 with a SNAP-tag at the N-terminus (human, UniProt P51685 1-355, SNAP-tag labelled covalently with Lumi4-Terbium); assay: HTRF Tag-lite, inhibition of hCCL1-AF647 binding to SNAP-hCCR8 on HEK-293 cells
T1 construct: also called hCCR8 SNAP-tag; CCR8 SNAP-tag
Method: The inhibition of CCL1 binding to hCCR8 was evaluated with the Tag-Lite® technology from Cisbio (Revvity). Human CCR8 is engineered with a SNAP-tag at the N-terminus of the GPCR. hCCR8 SNAP-tag is transiently transfected on HEK-293 cell line using FuGene® (Promega, Madison, WI, USA). 48 hours after transfection, cells are labeled with the substrate Lumi4-Terbium® (Cisbio, Codolet, France) which covalently reacts with the SNAP-tag, for 1 h at 37° C. Thawed or freshly labeled cells are plated in a 384 low volume white plate (GREINER Bio-One, Courtaboeuf, France) (10000 cells/well/10 μl). […] The Kd was previously obtained in a saturation binding assay on the same cells. […] The plate is next incubated at 21° C. for 2 h. Detection of HTRF signal is performed on the multiplate reader EnVision (PerkinElmer, Waltham, MA, USA). The HTRF (665/620) ratio is calculated by EnVision software, the data exported are considered as the total binding. The specific binding is calculated then by subtracting the non-specific signal from the total binding. The Ki and IC₅₀ are calculated using the “One site-Fit Ki” and “One site-FitlogIC50” from GraphPad Prism 9 (Graphpad Software, San Diego, CA, USA), respectively.

human CCR8 [2] = target: T2, human CCR8 (human, UniProt P51685 1-355); assay: flow cytometry, hCCR8-transfected CHO-K1 cells
T2 construct: also called hCCR8; CC chemokine receptor 8
How it was run: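 Antibody incubation ran 30 min at 4° C, followed by fluorescent anti-mouse or anti-human IgG secondary for 30 min at 4° C. Isotype-matched mAbs served as nonspecific-binding controls.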

[3] = target: T1, human CCR8 with a SNAP-tag at the …; assay: cell-based or functional assay
human CCR8 [4] = target: T2, human CCR8; assay: flow cytometry, inhibition of hCCL1-AF647 (10 nM) binding to hCCR8-CHO cells
How it was run: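 hCCR8-transfected CHO cells preincubated 30 min at 4 °C with anti-CCR8 mAb (8 concentrations, top 10 μg/mL, 1/3 dilutions), washed, then exposed to labelled CCL1. Bound CCL1 quantified by flow cytometry; IC₅₀ of binding blockade from sigmoidal variable-slope fit.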

human CCR8 [5] = target: T2, human CCR8; assay: cell-based or functional assay
human CCR8 [6] = target: T2, human CCR8; assay: cell-based or functional assay; remark: listed apart in the source
pm3 = target: T3, pm3 (Y17 sulfated; Y15 and Y16 not sulfated); assay: ELISA on coated peptide [cont.]
T3 construct: also called sulfated CCR8 N-terminal peptide pm3
T3 sequence (peptide, as listed by the source): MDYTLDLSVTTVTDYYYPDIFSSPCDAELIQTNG
Method: (§1) The specific binding properties of antibodies were evaluated by ELISA with coated CCR8 related peptides (500 ng/ml) in carbonate/bicarbonate buffer. Different peptides were used as described in Table 1 (see Example 1). Each anti-CCR8 mAb was tested at 1 μg/mL then diluted at 1/10. After an incubation at room temperature during 90 min, unbound mAbs were removed by washings. […] After washings, 3,3′,5,5′-tetramethylbenzidine (TMB) (Interchim, Montluçon, France) was added for 15 min. Then the optical density (OD) was determined by using a multiplate reader (Tecan, Lyon, France) and correlated with mAb reactivity on the panel of coated peptides.

pm8 = target: T4, pm8 (Y15, Y16 and Y17 sulfated); assay: ELISA on coated peptide [cont.]
T4 construct: also called sulfated CCR8 N-terminal peptide pm8
T4 sequence (peptide, as listed by the source): as above
Method: as §1

pm6 = target: T5, pm6 (Y16 and Y17 sulfated; Y15 not sulfated); assay: ELISA on coated peptide [cont.]
T5 construct: also called sulfated CCR8 N-terminal peptide pm6
T5 sequence (peptide, as listed by the source): as above
Method: as §1

pm5 = target: T6, pm5 (Y15 and Y17 sulfated; Y16 not sulfated); assay: ELISA on coated peptide [cont.]
T6 construct: also called sulfated CCR8 N-terminal peptide pm5
T6 sequence (peptide, as listed by the source): as above
Method: as §1

human CCR8 [7] = target: T2, human CCR8; assay: cell-based or functional assay; remark: listed apart in the source
human CCR8 [8] = target: T2, human CCR8; assay: cell-based or functional assay; remark: listed apart in the source
human CCR8 [9] = target: T2, human CCR8; assay: cell-based or functional assay; remark: listed apart in the source

Binder	% positive cells (human CCR8 [2]) [%]	% hCCR8 internalization with CCL1 300 nM, mAb 1 µg/ml (HTRF) [3] [%]	% hCCR8 internalization with CCL1 300 nM, mAb 10 µg/ml (HTRF) [3] [%]	IC50 (human CCR8 [4])	IC50 of CCL1-induced hCCR8 Gi2 signaling (BRET, HEK-293) (human CCR8 [5])	MFI fold change to isotype ctrl (human CCR8 [2]) [fold]	IC50 of CCL1-induced hCCR8 Gi2 signaling (BRET), pH 6.5 (human CCR8 [6])	IC50 of CCL1-induced hCCR8 Gi2 signaling (BRET), pH 7.4 (human CCR8 [6])	binding result (pm3)	binding result (pm8)	binding result (pm6)	binding result (pm5)	residual hCCL1 (100 nM) Gi2 response, protocol #2, mAb 0.08 µg/mL (human CCR8 [7]) [%]	residual hCCL1 (100 nM) Gi2 response, protocol #2, mAb 0.4 µg/mL (human CCR8 [7]) [%]	residual hCCL1 (100 nM) Gi2 response, protocol #2, mAb 10 µg/mL (human CCR8 [7]) [%]	residual hCCL1 (100 nM) Gi2 response, protocol #3, mAb 0.05 µg/mL (human CCR8 [7]) [%]	residual hCCL1 (100 nM) Gi2 response, protocol #3, mAb 0.5 µg/mL (human CCR8 [7]) [%]	residual hCCL1 (100 nM) Gi2 response, protocol #3, mAb 5 µg/mL (human CCR8 [7]) [%]	extrapolated top plateau of hCCL1 curve with 5 µg/mL mAb, protocol #3 (human CCR8 [8])	further results
Ref #1 (antibody, human IgG1, V domains shown, Benchmark; cloned into vectors encoding heavy and light chains of human IgG1, produced in CHO; also called TPP-21360 of WO 2021/260210) VH: EVQLLESGGGLVQPGGSLRLSCAASGFTFSSYGMHWVRQAPGKGLEWVSAINWNGGSTGYADSVKGRFTISRDNSKNTLYLQMNSLRAEDTAVYYCARGHHSGYDGRFFDYWGQGTLVTVSS VL: QSVLTQPPSVSGAPGQRVTISCTGSSSNIGAGYNVHWYQQLPGTAPKLLIYTNNRRPSGVPDRFSGSKSGTSASLAISGLRSEDEADYYCAAWDASLSGWVFGGGTKLTVL	75.1	126	111	0.65 µg/mL	0.101 µg/mL and 0.675 nM	–	–	–	–	–	–	–	–	–	–	–	–	–	–	IC50 [1]: 0.45 µg/mL; Ki [1]: 0.23 µg/mL
Ref #3 (antibody, human IgG1, V domains shown) VH: EVQLVESGGGLVQPGGSLKLSCAASGFTFNTYAMNWVRQASGKGLEWVARIRSKANNYATYYADSVKDRFTISRDDSKNTLYLQMNNLKTEDTAVYYCVRDRSRGEDYAMDYWGQGTLVTVSS VL: DIVMTQSPLSLPVTPGEPASISCRSSKSLLHSNANTYLYWFLQKPGQSPQLLIYRMSNLASGVPDRFSGSGSGTAFTLKISRVEAEDVGVYYCMQHLEYPFTFGQGTKLEIK	–	95	103	–	–	–	–	–	–	–	–	–	–	–	–	–	–	–	–	–
anti-CCR8 mAb 1-7 (antibody, V domains shown, Murine hybridoma mAb) VH: QVHLVETGGGLVRPGNSLKLSCVTSGFTLSNYRMHWLRQPPGKRLEWIAVIKVKSDNYGANYAESVKGRFTISRDDAKSSVYLQMNRLREEDTATYYCSRPDGFSPFVYWGQGTLVTVSA VL: DIKMTQSPSSMYASLGERVTITCKASQDINSYLSWFQQKPGKSPKTLIYRANRLVDGVPSRFSGSGSGQDYFLTISSLEYEDMGIYYCLQYGEFPPTFGAGTKLELK	71.3	–	–	0.89 µg/mL and 5.7 nM	0.018 µg/mL and 0.117 nM	6.26	0.011 µg/ml and 0.073 nM	0.007 µg/ml and 0.047 nM	binds	binds	binds	binds	73	51	24	69	38	30	526000 % of hCCL1 (100 nM)	–
anti-CCR8 mAb 1-28 (antibody, human IgG1, kappa, V domains shown) VH: EVQLVESGGGLVQPTGSLRLSCAASGFTFNAYAMNWVRQAPGKGLEWVARIRSKSNDYATYYGDSVKDRFTISRDDSQSMLYLQMNNLKTEDTAMYYCVRGREAYYRYDGGYYAMDYWGQGTSVTVSS VL: DIVMTQAAPSVSVTPGESVSISCTSSKSLLHSNGNTYLYWFLQRPGQSPQLLIYRMSNLASGVPDRFSGSGSGTAFTLRISRVEAEDVGVYYCMQHREYPFTFGSGTKLEIKR	–	–	–	–	–	–	–	–	–	–	–	–	–	–	–	–	–	–	–	ADCC % max lysis, HUT78 targets, NK donor 1 (human CCR8 [9]): 31%; ADCC % max lysis, HUT78 targets, NK donor 2 (human CCR8 [9]): 26%; ADCC EC50, HUT78 targets, NK donor 1 (human CCR8 [9]): 0.0733 nM; ADCC EC50, HUT78 targets, NK donor 2 (human CCR8 [9]): 0.0904 nM
anti-CCR8 mAb 1-14 (antibody, V domains shown, Murine hybridoma mAb) VH: QVQLVETGGGLVRPGNSLKLSCVTSGFTFSNYRMHWLRQPPGKRLEWIAVIKVKSDNYGANYAESVKGRFTISRDDSKSSVYLQVNRLREEDTATYYCSSPTYPGSSGFAYWGQGTLVTVSA VL: DIQMTQTTSSLSASLGDRVTISCRASQDISNYLNWYQQKPDGTVKLLIYYTSRLHSGVPSRFSGSGSGTDYSLTISNLEQEDIATYFCQQGNKFPPTFGGGTKLEIN	83	–	–	0.28 µg/mL and 1.85 nM	0.01 µg/mL and 0.066 nM	17.6	0.014 µg/ml and 0.095 nM	0.004 µg/ml and 0.026 nM	binds	binds	binds	binds	93	89	48	92	68	50	305000 % of hCCL1 (100 nM)	–
Ref #2 (antibody, human IgG1, V domains shown) VH: QVQLVQSGAEVKKPGASVKVSCKASGYTFTSYYMHWVRQAPGQGLEWMGIINPSGGSTSYAQKFQGRVTMTRDTSTSTVYMELSSLRSEDTAVYYCARAVRNRFRFDYWGQGTLVTVSS VL: QSALTQPASVSGSPGQSITISCTGTSSDVGSYNLVSWYQQHPGKAPKLMIYEVSKRPSGVSNRFSGSKSGNTASLTISGLQAEDEADYYCSSYAGSSTFVVFGGGTKLTVL	–	100	90	–	–	–	–	–	–	–	–	–	–	–	–	–	–	–	–	–
